The record followed here is patent US20150284465A1 (Chugai, published 2015).

The target in experiment [1] is T1, soluble GPC3 core polypeptide (human, UniProt P51654 25-563).
T1 construct: also called soluble GPC3 core protein; soluble glypican-3 core
As to the kind of experiment: competitive ELISA on plate-immobilized soluble GPC3 core polypeptide; competitor: biotinylated H0L0 antibody at 0.3 µg/mL. As to the method:
100 μl of the polypeptide solution was added to each well of a 96-well plate. […] After 200 μl of blocking buffer was added, the plate was blocked at 4° C. overnight or longer. […] The plate was incubated at room temperature for one hour, and then washed five times with washing buffer using SkanWasher 400 (Molecular Devices). Goat anti-streptavidin alkaline phosphatase (Zymed) was 20,000-times diluted with substrate buffer and added to the plate at 100 μl/well. The plate was incubated at room temperature for one hour, and then washed five times with washing buffer using SkanWasher 400. The concentration of phosphatase substrate (Sigma) was adjusted to 1 mg/ml using the substrate buffer, and the solution was added to the plate at 100 μl/well. The plate was incubated for one hour.

The target of experiment [2] is T1, soluble GPC3 core polypeptide. The experiment can be described thus: competitive ELISA on plate-immobilized soluble GPC3 core polypeptide; competitor: biotinylated GPC3-H2L2 antibody at 0.3 µg/mL. As to the method:
The binding activities of prepared antibodies were determined by competitive ELISA. […] The plates were incubated at 4° C. for 30 minutes or more for blocking. […] The plates were incubated at room temperature for one hour, and then washed five times with washing buffer using SkanWasher 400 (Molecular Devices). 100 μl of goat anti streptavidin alkaline phosphatase (Zymed) 20,000-times diluted with substrate buffer was added to each well. The plates were incubated at room temperature for one hour, and then washed five times with washing buffer using SkanWasher 400. Phosphatase Substrate (Sigma) was prepared at 1 mg/ml using substrate buffer, and added to each well (100 μl). The plates were incubated for one hour.

For experiment [3], the target named is T2, soluble human FcRn (complex of FcRn and β2-microglobulin) (human, UniProt P55899 24-290; P16213 21-119).
T2 construct: also called hFcRn; copies: 1 + 1
The experiment can be described thus: SPR (Biacore 3000), antibody captured on Protein L or anti-human kappa chain antibody, human FcRn as analyte, pH 6.0, steady state affinity. As to the method: (§1) The binding to human FcRn was assessed using Biacore 3000. An antibody was bound to Protein L or rabbit anti-human IgG Kappa chain antibody immobilized onto a sensor chip, human FcRn was added as an analyte for interaction with the antibody, and the affinity (KD) was calculated from the amount of bound human FcRn. Specifically, Protein L or rabbit anti-human IgG Kappa chain antibody was immobilized onto sensor chip CM5 (Biacore) by the amine coupling method using 50 mM Na-phosphate buffer (pH 6.0) containing 150 mM NaCl as the running buffer. Then, an antibody was diluted with a running buffer containing 0.02% Tween20, and injected to be bound to the chip. Human FcRn was then injected and the binding activity of the human FcRn to antibody was assessed.
(§2) The affinity was computed using BlAevaluation Software. The obtained sensorgram was used to calculate the amount of hFcRn bound to the antibody immediately before the end of human FcRn injection. The affinity of the antibody for human FcRn was calculated by fitting with the steady state affinity method.

Experiment [4] has as its target T3, human-derived Fcγ receptor IIb (Recombinant Human FcRIIB/C, R&D systems) (human, UniProt P31994 46-217, limits assumed).
T3 construct: Bought recombinant protein, construct not described; also called FcγRIIb
T3 sequence (looked up): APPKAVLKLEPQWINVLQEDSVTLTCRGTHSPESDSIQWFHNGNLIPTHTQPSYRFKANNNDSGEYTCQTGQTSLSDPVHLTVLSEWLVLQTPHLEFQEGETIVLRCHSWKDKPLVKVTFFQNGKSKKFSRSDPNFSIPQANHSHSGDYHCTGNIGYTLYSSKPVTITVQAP
The experiment can be described thus: SPR (Biacore T100), FcγRIIb immobilized on CM5, antibody as analyte at 200 µg/ml, 25 C. How it is done: The FcγRIIb binding was assessed by the procedure described below. […] The amounts of bound antibody were compared. […] FcγRIIb was immobilized onto the sensor chip CM5 (Biacore) by the amine coupling method. The final amount of immobilized FcγRIIb was about 4,300 RU. Then, the running buffer was injected until the baseline was stabilized. The measurement was carried out after the baseline was stabilized. […] The running buffer used was HBS-EP+ (10 mM HEPES, 0.15M NaCl, 3 mM EDTA, 0.05% v/v Surfactant P20), and the flow rate was 20 μl/min. The measurement temperature was 25° C. The concentration of each IgG or modified form thereof was adjusted to 200 μg/ml. 20 μl of an analyte was injected and allowed to interact with the immobilized FcγRIIb. After interaction, the analyte was dissociated from FcγRIIb and the sensor chip was regenerated by injecting 200 μl of the running buffer. […] This series of injection was repeated twice.

Experiment [5] addresses T4, hFcγRIIIaV-His6 (human-derived Fcγ receptor IIIa, Val) (human, UniProt P08637 17-208, limits assumed).
T4 construct: also called FcγRIIIa (Val); not shown: His6 tag
The experiment can be described thus: SPR (Biacore T100), hFcγRIIIaV-His6 immobilized on CM5, antibody as analyte at 250 µg/ml. As to the method:
The FcγRIIIa binding was assessed by the procedure described below. […] The amounts of bound antibody were compared. […] FcγRIIIa was immobilized onto the sensor chip CM5 (Biacore) by the amine coupling method. […] The running buffer used was HBS-EP+, and the flow rate was 5 μl/min. The sample concentration was adjusted to 250 μg/ml using HBS-EP+. The analysis included two steps: two minutes of association phase where 10 μl of an antibody solution was injected and the subsequent four minutes of dissociation phase where the injection was switched with HBS-EP+. After the dissociation phase, the sensor chip was regenerated by injecting 20 μl of 5 mM hydrochloric acid. The association, dissociation, and regeneration constitute one analysis cycle. Various antibody solutions were injected to obtain sensorgrams. […] 1999 August; 29(8):2613-24.

The target in experiment [6] is T2, soluble human FcRn (complex of FcRn and …). As to the kind of experiment: SPR (Biacore 3000), antibody captured on Protein L or anti-human kappa chain antibody, human FcRn as analyte, pH 6.0, steady state affinity. As to the method:
as §1, §2
The source holds these as a separate data set.

Read-outs that look alike come from different tables or passages of the source.

T1 sequence (P51654 other isoform, or with tags, fused parts or gaps limits assumed): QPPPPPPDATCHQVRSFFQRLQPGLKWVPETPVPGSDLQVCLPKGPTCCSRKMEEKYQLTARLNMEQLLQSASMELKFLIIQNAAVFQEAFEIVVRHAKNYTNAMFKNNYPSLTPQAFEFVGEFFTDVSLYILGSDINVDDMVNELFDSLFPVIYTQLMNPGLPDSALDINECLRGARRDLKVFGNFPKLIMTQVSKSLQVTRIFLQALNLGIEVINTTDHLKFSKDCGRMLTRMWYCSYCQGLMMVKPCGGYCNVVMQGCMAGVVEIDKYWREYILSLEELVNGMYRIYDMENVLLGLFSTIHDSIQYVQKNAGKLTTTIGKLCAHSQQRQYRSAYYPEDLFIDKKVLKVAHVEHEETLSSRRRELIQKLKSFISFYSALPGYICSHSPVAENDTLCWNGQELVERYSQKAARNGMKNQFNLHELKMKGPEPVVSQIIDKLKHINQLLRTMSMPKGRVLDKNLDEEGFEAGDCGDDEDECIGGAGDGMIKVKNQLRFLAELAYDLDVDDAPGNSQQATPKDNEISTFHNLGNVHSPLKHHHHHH
T2 sequence (P55899 24-290 limits assumed, chain 1 of 2): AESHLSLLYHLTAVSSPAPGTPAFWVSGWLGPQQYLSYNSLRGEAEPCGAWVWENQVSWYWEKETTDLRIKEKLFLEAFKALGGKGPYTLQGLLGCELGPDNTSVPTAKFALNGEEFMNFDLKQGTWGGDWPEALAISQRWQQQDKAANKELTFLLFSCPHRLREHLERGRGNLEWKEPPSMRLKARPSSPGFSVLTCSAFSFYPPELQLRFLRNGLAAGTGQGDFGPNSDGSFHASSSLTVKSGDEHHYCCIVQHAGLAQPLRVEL
T2 sequence (P16213 21-119 limits assumed, chain 2 of 2): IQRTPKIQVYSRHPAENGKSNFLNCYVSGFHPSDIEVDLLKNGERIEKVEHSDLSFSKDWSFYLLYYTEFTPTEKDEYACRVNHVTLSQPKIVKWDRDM
T4 sequence (P08637 17-208 F176V limits assumed): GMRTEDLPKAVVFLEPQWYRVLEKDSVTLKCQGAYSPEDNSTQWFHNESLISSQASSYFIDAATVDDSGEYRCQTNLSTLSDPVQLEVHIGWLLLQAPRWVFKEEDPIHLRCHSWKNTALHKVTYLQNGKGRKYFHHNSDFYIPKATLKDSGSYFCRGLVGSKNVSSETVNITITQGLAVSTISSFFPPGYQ

B1: Hspu2.2Lspu2.2 antibody (antibody, V domains shown)
VH: QVQLVQSGAEVKKPGASVKVSCKASGYTFTDYEMHWIRQPPGKGLEWIGAINPKTGDTAYSQKFKGRVTLTADKSTSTAYMELSSLTSEDTAVYYCTRFYSYTYWGRGTLVTVSS
VL: DIVMTQSPLSLPVTPGQPASISCRASRSLVHSNRNTYLHWYQQKPGQAPRLLIYKVSNRFSGVPDRFSGSGSGTDFTLKISRVEAEDVGVYYCSQNTHVPPTFGRGTKLEIK
notes: Anti-glypican 3, raised isoelectric point; also called Hu2.2Lu2.2
For the molecule B1, in experiment [1], the binding result is on record as “binds”.

B2: GPC3_H2L2 (antibody, human IgG1, kappa, V domains shown)
VH: QVQLVQSGAEVKKPGASVKVSCKASGYTFTDYEMHWVRQAPGQGLEWMGALDPKTGDTAYSQKFKGRVTLTADKSTSTAYMELSSLTSEDTAVYYCTRFYSYTYWGQGTLVTVSS
VL: DVVMTQSPLSLPVTPGEPASISCRSSQSLVHSNRNTYLHWYLQKPGQSPQLLIYKVSNRFSGVPDRFSGSGSGTDFTLKISRVEAEDVGVYYCSQNTHVPPTFGQGTKLEIKR
Take B2: the “IC50 (read off the curve)” value in experiment [2] is about 0.9 µg/mL.

B3: GPC3_H3L3 (antibody, human IgG1, kappa, V domains shown)
VH: QVQLVQSGAEVKKPGASVTVSCKASGYTFTDYEMHWIRQPPGEGLEWIGAIDPKTGDTAYSESFQDRVTLTADKSTSTAYMELSSLTSEDTAVYYCTRFYSYTYWGQGTLVTVSS
VL: DIVMTQSPLSLPVTPGEPASISCQASESLVHSNRNTYLHWYLQKPGQSPQLLIYKVSNRFSGVPDRFSGSGSGTDFTLKISRVEAEDVGVYYCSQNTHVPPTFGQGTKVEIER
For the molecule B3, the “IC50 (read off the curve)” value in experiment [2] was about 0.9 µg/mL.

B4: GPC3_H1L1 (antibody, human IgG1, kappa, V domains shown)
VH: QVQLVQSGAEVKKPGASVKVSCKASGYTFTDYEMHWIRQPPGKGLEWIGAINPKTGDTAYSQKFKGRVTLTADKSTSTAYMELSSLTSEDTAVYYCTRFYSYTYWGRGTLVTVSS
VL: DIVMTQSPLSLPVTPGQPASISCRASRSLVHSNRNTYLHWYQQKPGQAPRLLIYKVSNRFSGVPDRFSGSGSGTDFTLKISRVEAEDVGVYYCSQNTHVPPTFGRGTKLEIKR
notes: Anti-human GPC3 antibody
As for B4, the binding result in experiment [2] is given as “binds”.

B5: anti-IL-31 receptor antibody H0L0 with IgG1 constant region (antibody)
heavy: not shown
VL: DIQMTQSPSSLSASVGDRVTITCRTSENIYSFLAWYQQKPGKAPKLLIYNAKTLAKGVPSRFSGSGSGTDFTLTISSLQPEDFATYYCQHHYESPLTFGGGTKVEIK
notes: Not the anti-glypican 3 antibody of the same name; also called H0L0 (IgG1)
Regarding B5, the dissociation constant Kd in experiment [3] was found to be 1070 nM.

B6: anti-IL-31 receptor antibody H0L0 with M58 constant region (antibody)
heavy: QVQLVQSGAEVKKPGASVKVSCKASGYTFTGYIMNWVRQAPGQGLEWMGLINPYNGGTSYNQKFKGRVTITADESTSTAYMELSSLRSEDTAVYYCARDGYDDGPYTMDYWGQGTLVTVSASTKGPSVFPLAPSSKSTSGGTAALGCLVKDYFPEPVTVSWNSGALTSGVHTFPAVLQSSGLYSLSSVVTVPSSNFGTQTYTCNVDHKPSNTKVDKTVERKSCVECPPCPAPPVAGPSVFLFPPKPKDTLMISRTPEVTCVVVDVSQEDPEVQFNWYVDGVEVHNAKTKPREEQFNSTFRVVSVLTVVHQDWLNGKEYKCKVSNKGLPAPIEKTISKTKGQPREPQVYTLPPSQEEMTKNQVSLTCLVKGFYPSDIAVEWESNGQPENNYKTTPPMLDSDGSFFLYSKLTVDKSRWQEGNVFSCSVMHEALHNHYTQKSLSLSP
VL: DIQMTQSPSSLSASVGDRVTITCRTSENIYSFLAWYQQKPGKAPKLLIYNAKTLAKGVPSRFSGSGSGTDFTLTISSLQPEDFATYYCQHHYESPLTFGGGTKVEIK
notes: also called H0L0 (M58)
Molecule B6 yielded an equilibrium dissociation constant (Kd) in experiment [3] of 910 nM.

B7: WT-M14ΔGK (antibody)
heavy: QVQLQESGPGLVRPSQTLSLTCTVSGYSITSDHAWSWVRQPPGRGLEWIGYISYSGITTYNPSLKSRVTMLRDTSKNQFSLRLSSVTAADTAVYYCARSLARTTAMDYWGQGSLVTVSSASTKGPSVFPLAPSSKSTSGGTAALGCLVKDYFPEPVTVSWNSGALTSGVHTFPAVLQSSGLYSLSSVVTVPSSNFGTQTYTCNVDHKPSNTKVDKTVERKSCVECPPCPAPPVAGPSVFLFPPKPKDTLMISRTPEVTCVVVDVSHEDPEVQFNWYVDGVEVHNAKTKPREEQFNSTFRVVSVLTVVHQDWLNGKEYKCKVSNKGLPSSIEKTISKAKGQPREPQVYTLPPSREEMTKNQVSLTCLVKGFYPSDIAVEWESNGQPENNYKTTPPVLDSDGSFFLYSKLTVDKSRWQQGNVFSCSVMHEALHNHYTQKSLSLSP
light: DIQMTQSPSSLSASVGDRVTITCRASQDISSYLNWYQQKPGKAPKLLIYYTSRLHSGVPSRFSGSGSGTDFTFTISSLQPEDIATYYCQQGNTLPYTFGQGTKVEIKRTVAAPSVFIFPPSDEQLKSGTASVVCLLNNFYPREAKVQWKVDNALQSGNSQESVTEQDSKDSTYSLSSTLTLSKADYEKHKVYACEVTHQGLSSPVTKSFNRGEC
Consider B7, for which the binding result in experiment [4] and in experiment [5] was “binds” throughout. Besides, binding in experiment [6] was put at a Kd of 1850 nM.
